Measured values: paper PMC12074421, “Development and Characterization of pFluor50, a Fluorogenic-Based Kinetic Assay System for High-Throughput Inhibition Screening and Characterization of Time-Dependent Inhibition and Inhibition Type for Six Human CYPs” (Molecules, 2025)
Several values for one entry are separate records, joined by “and”; a condition that tells them apart may be missing. Equal entries are not always repeated.

How the values were obtained:
CYP2C19 = biological target: T1, CYP2C19 (Homo sapiens, UniProt P33261); test: pFluor50 Michaelis–Menten kinetics, CYP2C19 with 3OMF; type: in vitro ADME
T1 construct: purchased Sigma Aldrich (CYPexpress, Oxford Biomedical Research, Inc.) MTOXCE2C19
Method: (§1) In general, the protocol for determination of the Michaelis–Menten kinetic parameters (KM and Vmax) involved addition of the appropriate master mix to phosphate buffer followed by addition of the appropriate amount of enzyme to the mix. The master mix was determined for each specific CPY450 based on empirical methods involving each reagent to obtain a linear range of enzyme activity. A total of 30 µL of this enzyme mix was then added to each well of the 384-well plate. Next, initial background readings were taken for 5 min, after which the appropriate amount of substrate was dispensed into each well using the onboard reagent dispenser of the plate reader. All plates contained one blank well without enzyme (only master mix) for each substrate concentration. […] Table 1 provides the formulation of the master mix for each CYP, the kinetic read time with substrate, the read time interval, the concentration range of the substrate used for the Michaelis–Menten kinetics, the Ex and Em wavelengths, and the concentration of substrate for inhibition/activation screening. Table S1 details the specific parameters used for the plate reader for each CYP–substrate pair.
(§2) For determining the Michaelis–Menten kinetic parameters (KM and Vmax) for each CYP–substrate pair, kinetic studies were performed in which a range of different concentrations of the substrate were used. Table 1 details the formulations for the master mix, CYPexpress^TM concentrations, and concentration ranges of each specific substrate. For each CYP–substrate pair, plate reader parameters were set up as described in Table S1. […] Briefly, the working solution was prepared for each substrate and then primed into one of the dispensers on the plate reader. […] The amount of CYPexpress reagent in units/(mg/mL) was determined for each enzyme as new lots may have slightly different activities, and the activity of the reagent may change over time. The appropriate mass of each CYPexpress^TM reagent needed to obtain the required units was measured using an analytical balance and was transferred to the master mix solution. […]

CYP2D6 = CYP2D6 (Homo sapiens, UniProt P10635); test: pFluor50 Michaelis–Menten kinetics, CYP2D6 with Eres; type: in vitro ADME; set-up: purchased Sigma Aldrich (CYPexpress, Oxford Biomedical Research, Inc.) MTOXCE2D6
Method: as §1, with “reader.” for “reader. All plates contained one blank well without enzyme (only master mix) for each substrate concentration.”
For determining the Michaelis–Menten kinetic parameters (KM and Vmax) for each CYP–substrate pair, kinetic studies were performed in which a range of different concentrations of the substrate were used. […] For each CYP–substrate pair, plate reader parameters were set up as described in Table S1. […]

CYP2C9 = CYP2C9 (Homo sapiens, UniProt P11712); test: pFluor50 Michaelis–Menten kinetics, CYP2C9 with Eres; type: in vitro ADME; set-up: purchased Sigma Aldrich (CYPexpress, Oxford Biomedical Research, Inc.) MTOXCE2C9
Method: as §1, §2

[1] = substrate: CCOc1ccc2nc3ccc(=O)cc-3oc2c1; test: pFluor50 Michaelis–Menten kinetics, CYP1A2 with Eres; type: in vitro ADME, human; settings: pH 7.4
Method: as §1
(§3) For determining the Michaelis–Menten kinetic parameters (KM and Vmax) for each CYP–substrate pair, kinetic studies were performed in which a range of different concentrations of the substrate were used. Table 1 details the formulations for the master mix, CYPexpress^TM concentrations, and concentration ranges of each specific substrate. For each CYP–substrate pair, plate reader parameters were set up as described in Table S1. The protocol used for Michaelis–Menten kinetics was similar for all the CYPs. Briefly, the working solution was prepared for each substrate and then primed into one of the dispensers on the plate reader. The other dispenser was primed with the buffer solution. 1.5 mL of phosphate buffer solution (pH 7.4) was used to prepare the master mix with the appropriate concentration of each reagent as specified in Table 1 (NADPH, NADP+, G6P, G6PDH, and/or MgCl2). The amount of CYPexpress reagent in units/(mg/mL) was determined for each enzyme as new lots may have slightly different activities, and the activity of the reagent may change over time. The appropriate mass of each CYPexpress^TM reagent needed to obtain the required units was measured using an analytical balance and was transferred to the master mix solution. This solution was mixed, and 30 µL of the solution was added to each well using a multichannel pipette. In each case, a blank control well was also included, as described in Figure S1. The plate was then transferred to the plate reader and readings were taken at the time intervals, for the appropriate length of time, and at the appropriate wavelengths as specified in Table 1.
(§4) Calibration curves were constructed using the determined plate reader settings (Figure S3) and concentrations of the products formed to allow for the calculation of product formation rates based on the observed fluorescence. For these calculations, we presumed that the total increase in observed fluorescence over time was due only to product formation. Calibration curves were generated with 6 different concentrations of the products (fluorescein and resorufin), which spanned the relative fluorescence units (RFU) observed during the kinetic experiments. This allowed for the calculation of product concentrations from the observed RFU, enabling the calculation of the product formation rates. Unfortunately, fluorescein benzyl ester (the product formed from the metabolism of dibenzyl fluorescein) is not commercially available. Therefore, the exact rate of formation could not be determined, and the Vmax for CYP3A4 cleavage of dibenzyl fluorescein has been reported as the rate of change in relative fluorescence units (RFUs) per minute.

[2] = substrate: CCOc1ccc2nc3ccc(=O)cc-3oc2c1; test: pFluor50 Michaelis–Menten kinetics, CYP2D6 with Eres; type: in vitro ADME, human; settings: pH 7.4
Method: as §1
as §3, with “In each case, a blank control well was also included, as described in Figure S1.” left out
as §4, with “This allowed for the calculation of product concentrations from the observed RFU, enabling the calculation of the product formation rates. Unfortunately, fluorescein benzyl ester (the product formed from the metabolism of dibenzyl fluorescein) is not commercially available.” left out

[3] = substrate: COc1ccc2c(-c3ccccc3C(=O)O)c3ccc(=O)cc-3oc2c1; test: pFluor50 Michaelis–Menten kinetics, CYP2C19 with 3OMF; type: in vitro ADME, human; settings: pH 7.4
Method: as §1
For determining the Michaelis–Menten kinetic parameters (KM and Vmax) for each CYP–substrate pair, kinetic studies were performed in which a range of different concentrations of the substrate were used. […] For each CYP–substrate pair, plate reader parameters were set up as described in Table S1. […] Briefly, the working solution was prepared for each substrate and then primed into one of the dispensers on the plate reader. […] The amount of CYPexpress reagent in units/(mg/mL) was determined for each enzyme as new lots may have slightly different activities, and the activity of the reagent may change over time. The appropriate mass of each CYPexpress^TM reagent needed to obtain the required units was measured using an analytical balance and was transferred to the master mix solution. […] The plate was then transferred to the plate reader and readings were taken at the time intervals, for the appropriate length of time, and at the appropriate wavelengths as specified in Table 1.
Calibration curves were constructed using the determined plate reader settings (Figure S3) and concentrations of the products formed to allow for the calculation of product formation rates based on the observed fluorescence. For these calculations, we presumed that the total increase in observed fluorescence over time was due only to product formation. Calibration curves were generated with 6 different concentrations of the products (fluorescein and resorufin), which spanned the relative fluorescence units (RFU) observed during the kinetic experiments. […]

[4] = substrate: CCOc1ccc2nc3ccc(=O)cc-3oc2c1; test: pFluor50 Michaelis–Menten kinetics, CYP2C9 with Eres; type: in vitro ADME, human; settings: pH 7.4
Method: as §1, §2

[5] = other: CYP1A2 1 mg/mL, three biological replicates
[6] = other: CYP1A2, biological repeat 1
[7] = other: CYP1A2, biological repeat 2
[8] = other: CYP1A2, biological repeat 3
[9] = other: CYP2D6 1 mg/mL, three biological replicates
[10] = other: CYP2C19 2 mg/mL, three biological replicates

## COc1ccc2c(-c3ccccc3C(=O)O)c3ccc(=O)cc-3oc2c1 [3OMF, 2-(6-methoxy-3-oxo-3H-xanthen-9-yl)benzoic acid]
CYP2C19; CYP2C19, biological repeat 1
  Vmax – repeat 1: 19.35 nmol/min
CYP2C19; CYP2C19, biological repeat 2
  Vmax – repeat 2: 15.86 nmol/min
CYP2C19; CYP2C19, biological repeat 3
  Vmax – repeat 3: 19.37 nmol/min

## CCOc1ccc2nc3ccc(=O)cc-3oc2c1 [Eres, 7-ethoxy-3H-phenoxazin-3-one]
CYP2D6; CYP2D6, biological repeat 1
  Vmax – repeat 1: 1.22 nmol/min
CYP2D6; CYP2D6, biological repeat 2
  Vmax – repeat 2: 0.72 nmol/min
CYP2C9; CYP2C9, biological repeat 1
  Vmax – repeat 1: 0.40 nmol/min
CYP2C9; CYP2C9, biological repeat 2
  Vmax – repeat 2: 0.39 nmol/min
CYP2C9; CYP2C9, biological repeat 3
  Vmax – repeat 3: 0.49 nmol/min

B1: CYP1A2 (Homo sapiens) (protein)
chain: ALSQSVPFSATELLLASAIFCLVFWVLKGLRPRVPKGLKSPPEPWGWPLLGHVLTLGKNPHLALSRMSQRYGDVLQIRIGSTPVLVLSRLDTIRQALVRQGDDFKGRPDLYTSTLITDGQSLTFSTDSGPVWAARRRLAQNALNTFSIASDPASSSSCYLEEHVSKEAKALISRLQELMAGPGHFDPYNQVVVSVANVIGAMCFGQHFPESSDEMLSLVKNTHEFVETASSGNPLDFFPILRYLPNPALQRFKAFNQRFLWFLQKTVQEHYQDFDKNSVRDITGALFKHSKKGPRASGNLIPQEKIVNLVNDIFGAGFDTVTTAISWSLMYLVTKPEIQRKIQKELDTVIGRERRPRLSDRPQLPYLEAFILETFRHSSFLPFTIPHSTTRDTTLNGFYIPKKCCVFVNQWQVNHDPELWEDPSEFRPERFLTADGTAINKPLSEKMMLFGMGKRRCIGEVLAKWEIFLFLAILLQQLEFSVPPGVKVDLTPIYGLTMKHARCEHVQARLRFSIN
notes: purchased Sigma Aldrich (CYPexpress, Oxford Biomedical Research, Inc.) MTOXCE1A2
[1]; [5]
  Km: 0.35 ± 0.1 µM
  Vmax: 1.61 nmol/min
[1]; [6]
  Km: 0.33 µM
  Vmax: 1.64 nmol/min
[1]; [7]
  Km: 0.225 µM
  Vmax: 1.38 nmol/min
[1]; [8]
  Km: 0.47 µM
  Vmax: 1.82 nmol/min

B2: CYP2D6 (Homo sapiens) (protein)
chain: MGLEALVPLAVIVAIFLLLVDLMHRRQRWAARYPPGPLPLPGLGNLLHVDFQNTPYCFDQLRRRFGDVFSLQLAWTPVVVLNGLAAVREALVTHGEDTADRPPVPITQILGFGPRSQGVFLARYGPAWREQRRFSVSTLRNLGLGKKSLEQWVTEEAACLCAAFANHSGRPFRPNGLLDKAVSNVIASLTCGRRFEYDDPRFLRLLDLAQEGLKEESGFLREVLNAVPVLLHIPALAGKVLRFQKAFLTQLDELLTEHRMTWDPAQPPRDLTEAFLAEMEKAKGNPESSFNDENLRIVVADLFSAGMVTTSTTLAWGLLLMILHPDVQRRVQQEIDDVIGQVRRPEMGDQAHMPYTTAVIHEVQRFGDIVPLGVTHMTSRDIEVQGFRIPKGTTLITNLSSVLKDEAVWEKPFRFHPEHFLDAQGHFVKPEAFLPFSAGRRACLGEPLARMELFLFFTSLLQHFSFSVPTGQPRPSHHGVFAFLVSPSPYELCAVPR
notes: purchased Sigma Aldrich (CYPexpress, Oxford Biomedical Research, Inc.) MTOXCE2D6
[2]; [9]
  Km: 1.63 ± 0.7 µM
  Vmax: 0.00093 µmol/min
[2]; other: CYP2D6, biological repeat 1
  Km: 2.43 µM
[2]; other: CYP2D6, biological repeat 2
  Km: 0.89 µM
[2]; other: CYP2D6, biological repeat 3
  Km: 1.57 µM

B3: CYP2C19 (Homo sapiens) (protein)
chain: MDPFVVLVLCLSCLLLLSIWRQSSGRGKLPPGPTPLPVIGNILQIDIKDVSKSLTNLSKIYGPVFTLYFGLERMVVLHGYEVVKEALIDLGEEFSGRGHFPLAERANRGFGIVFSNGKRWKEIRRFSLMTLRNFGMGKRSIEDRVQEEARCLVEELRKTKASPCDPTFILGCAPCNVICSIIFQKRFDYKDQQFLNLMEKLNENIRIVSTPWIQICNNFPTIIDYFPGTHNKLLKNLAFMESDILEKVKEHQESMDINNPRDFIDCFLIKMEKEKQNQQSEFTIENLVITAADLLGAGTETTSTTLRYALLLLLKHPEVTAKVQEEIERVIGRNRSPCMQDRGHMPYTDAVVHEVQRYIDLIPTSLPHAVTCDVKFRNYLIPKGTTILTSLTSVLHDNKEFPNPEMFDPRHFLDEGGNFKKSNYFMPFSAGKRICVGEGLARMELFLFLTFILQNFNLKSLIDPKDLDTTPVVNGFASVPPFYQLCFIPV
notes: purchased Sigma Aldrich (CYPexpress, Oxford Biomedical Research, Inc.) MTOXCE2C19
[3]; [10]
  Km: 2.3 ± 0.8 µM and 2.31 ± 0.8 µM
  Vmax: 0.0182 µmol/min
[3]; other: CYP2C19, biological repeat 1
  Km: 3.19 µM
[3]; other: CYP2C19, biological repeat 2
  Km: 1.42 µM

B4: CYP2C9 (Homo sapiens) (protein)
chain: MDSLVVLVLCLSCLLLLSLWRQSSGRGKLPPGPTPLPVIGNILQIGIKDISKSLTNLSKVYGPVFTLYFGLKPIVVLHGYEAVKEALIDLGEEFSGRGIFPLAERANRGFGIVFSNGKKWKEIRRFSLMTLRNFGMGKRSIEDRVQEEARCLVEELRKTKASPCDPTFILGCAPCNVICSIIFHKRFDYKDQQFLNLMEKLNENIKILSSPWIQICNNFSPIIDYFPGTHNKLLKNVAFMKSYILEKVKEHQESMDMNNPQDFIDCFLMKMEKEKHNQPSEFTIESLENTAVDLFGAGTETTSTTLRYALLLLLKHPEVTAKVQEEIERVIGRNRSPCMQDRSHMPYTDAVVHEVQRYIDLLPTSLPHAVTCDIKFRNYLIPKGTTILISLTSVLHDNKEFPNPEMFDPHHFLDEGGNFKKSKYFMPFSAGKRICVGEALAGMELFLFLTSILQNFNLKSLVDPKNLDTTPVVNGFASVPPFYQLCFIPV
notes: purchased Sigma Aldrich (CYPexpress, Oxford Biomedical Research, Inc.) MTOXCE2C9
[4]; other: CYP2C9, biological repeat 1
  Km: 0.46 µM
[4]; other: CYP2C9, biological repeat 2
  Km: 0.52 µM
[4]; other: CYP2C9, biological repeat 3
  Km: 0.39 µM
